Test results from the supplement of paper PMC9170038.
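Further: bound reporter read as fluorescence of individual clusters on recovered sequencing chips by microscopy, with normalized cluster intensities fitted with a binding model.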

Each sequence was assayed on K4 kissing-loop RNA reporter (assay: apparent KD of K4 kissing-loop reporter; higher = weaker reporter binding). Settings: Eterna round: R107; input ligand: FMN 200 uM.
Procedure: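 RNA-MaP round R107: designed RNA switches with theophylline, tryptophan, arginine or FMN aptamers are transcribed on-chip within common flanks. They are titrated with a labelled K4 kissing-loop RNA reporter in RNA-MaP buffer (100 mM Tris pH 7.5, 80 mM KCl, 4 mM MgCl2), without ligand or with the indicated ligand. Median apparent KD per design.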
With “ACGAAUCCAGCGGCCGCCACUAUUCGAUGAGUGAUGUUUAGGAGUAGAUCAUACCGCCGUGGUAAUAGGACCGGGCUCUUUGUAG [theeternabot_exclusion_KL_Trp_B_36]” the “apparent KD of K4 kissing-loop reporter” value was 289 nM. “CAUCACGCAAUCACGGAUGCAAGCAUUGAUACCAGAACCGAUUAUUUCCCUUGGCAGCAACACGGAGUGAUGUUCCUAGCAUAUA [theeternabot_sameState_KL_Theo_A_21]” was tested, and the “apparent KD of K4 kissing-loop reporter” value was 71.2 nM. With “AGGAGCGUGCGAUGAAAAUCGCACGCUCCUCGAGGACCGGUACGGCCGCCACUCGCUCGCGCCGAGUGAUGUUCGGCCGGCGAAC [#2 Same State - Tryptophan A Attempt #8 (HarryS)]” the “apparent KD of K4 kissing-loop reporter” value was 194 nM. With “UUAGCUCUAUAGAGCAAGAGGUAUACUGAUACCAGAGGCUAUAGCCUCCCUUGGCAGCGGAACGAGUGAUGUUCGAAACCUCAUU [AK5 SS Theophylline A]” the “apparent KD of K4 kissing-loop reporter” value was 754 nM. With “CCUAUCUCAUACGAUACCAGUCAAUGAUAUUUUAUCAAUGCCAUCACCGAGUGAUGUUCGGACCCUUGGCAGCGUAUGGGAUAGG [whbob_Ex_Theo_B_sa101]” the “apparent KD of K4 kissing-loop reporter” value was 266 nM. “CUCGUGGGUUUGAGAGGGCUUGUGGGAAGUAAGGAUAUUUAGGGAGGAAGAAGGUACUAUAGAAUAUAGUGAUGUUAUAUAUGGG [SSFMNA.Y]” was tested, and the “apparent KD of K4 kissing-loop reporter” value was 301 nM. For “GCCGUACGCAUGGAUACCAGCAAUCAAACGUCAUGCGAAGUGAUGUUUCGCUUACGGUAGUGCCCUUGGCAGCCAUGCGUACGGC”, the “apparent KD of K4 kissing-loop reporter” value was 142 nM. With “AUUAAUAACAGAGGAUAUGCAUUAUUAUUAUUUUUAAAUAAUAAAUGCAGUGAUGUUGCAUAUUAAGCAGAAGGCUGAUUUAUUU [JR_SSFMNB_Sub011]” the “apparent KD of K4 kissing-loop reporter” value was 137 nM. For “AAAGGAUCAGAGAGUGAUGUUCUCUAAUAACGAGGACCGGUACGGCCGCCACUCGAAGAUCCAAAAGUCCUACGAAAAGUAGGAC [Omei inspired 7]”, the “apparent KD of K4 kissing-loop reporter” value was 92.9 nM. In the case of “AUUCGUUUAUGUGAUACCAGACUUUGCAGUGAUGUUGCAUUAAUUAAAGAUGUUUAGUUUGUCCCUUGGCAGCACUAUUUAUUUA [JR_SSTheophyB_Sub002]”, the “apparent KD of K4 kissing-loop reporter” value is reported as 43.1 nM. “UGGAUAUAGUGAUGUUAUAUAGAGAUGGAUACCAGCAGAGAGAAUUGCCCUUGGCAGCCGAAAGAAGUAUCAUUAGAGAAGAAUG [ExTheophyl.Ai]” was tested, and the “apparent KD of K4 kissing-loop reporter” value was 208 nM. “AGUGACGUCGCGGCCGCCACUGAAAUGACAGUGAUGUUGUCAAAAGAAAGUGAUGUUAAGAAAUGCAGGACCGGGUGAUAGAAAA [semi-accidental]” was tested, and the “apparent KD of K4 kissing-loop reporter” value was 223 nM. With “UGUUUUUACUGAAGGAGCGGCAAUUGAUACGUAGAUAUAGUGAUGUUAUAUAAGAUAGAGAGCCAGGUAGGUCGCAGAUUUUUUC [ExArgB.Y]” the “apparent KD of K4 kissing-loop reporter” value was 179 nM. With “UUUGGAUUGCGCUAAGAGUGCAAGCGCCAACGAGGACCGGUACGGCCGCCACUCGCGGAGGAGUCCAGUGAUGUUGGACGGCCCG [Orbile]” the “apparent KD of K4 kissing-loop reporter” value was 326 nM. For “GGUGUUGUUUGUGCUGUUUUCCUCGUUUCUCGAGGACCGGUACGGCCGCCACUCGAGUGAUGUUUGGGUAGCGAUCUUUGUUAGU [Bdazzled - #5 Exc. Tryptophan A]”, the “apparent KD of K4 kissing-loop reporter” value was 223 nM. “CGAUAUAAGAAUAUAUAUCUCUAUUCAGAAGGAGCGUGUUUGUACACAGGUAGGUCGCUGAAAUUUAAACUAGUGAUGUUAGACU [JR_SSArginiA_Sub002]” was tested, and the “apparent KD of K4 kissing-loop reporter” value was 1170 nM.

Same assay, conditions: Eterna round: R107; input ligand: arginine 13.2 mM
With “UGUACCGAGUCAGGAUAUACCGUCGAAAGACGAAAUGGAGUGAUGUUCCUUAAACUGCGAAAGCAGGUAGAAGGGACUUGGUACU [FmnBS 30 #SwitchBubble #StaticStem #DoubleMagnetSystem]” the “apparent KD of K4 kissing-loop reporter” value was 263 nM. For “GGGUAUUACGGAGGAUAUGCACUGAGGAGGAGAAUAUAGUGAUGUUAUAUAAGAGGAAGGAGAAGAGUAGAAGGCCGUGGUGUUU [SSFMNB.J]”, the “apparent KD of K4 kissing-loop reporter” value was 126 nM. In the case of “GUCCCAGUGAUGUUGGUAGGCGGGCGGGAUACCAGCGAAGACUCACGCCCUUGGCAGCCCACAUAUCCCGCGUAGGGAUUAGCCC [Same State - Theophylline A (Freestyle 22)]”, the “apparent KD of K4 kissing-loop reporter” value is reported as 437 nM. For “AAAUAGCAGCAACGAGUGAUGUUCGACGAUACCAGCCUCGAUAGAGGCCCUUGGCAGCGUAAAUGAUCACAAAGCCAAGGGCUGC [#SwitchBubble 2]”, the “apparent KD of K4 kissing-loop reporter” value was 372 nM. With “GGAUCCACCAGUGAUGUUGGAGAAAACUCCAAGGAUAUGACGAAAGUCAGAAGGUGGUAAUAAGACGUCAAAGACGUCGGAUCCA [FmnA 19 #SwitchBubble #K4Early]” the “apparent KD of K4 kissing-loop reporter” value was 149 nM. For “CGCAGUGAUGUUGCUUAUAUUCUUGGUUAACGAGGACCGGUACGGCCGCCACUCGAUUUCUAUCUAUUCCAGUGUUAAUUUGAGU [JR_ExcTryptoA_Sub005]”, the “apparent KD of K4 kissing-loop reporter” value was 429 nM. For “GAGGAUUGAACGGCCGCCACUGCGCGCAGCUGCAAUCGAGUGAUGUUCCAUCAGUUGUCCAGUUCCAGGACCGGGUUCCGAUGCC [theeternabot_exclusion_KL_Trp_B_12]”, the “apparent KD of K4 kissing-loop reporter” value was 245 nM. With “AUUUAUGUUUCGGCCGCCACUCCACGUACUCAGAGAGAGUGAUGUUCUUUUUAUUAACGUCUAUGGAGGACCGGGAAGAGGUGAG [theeternabot_exclusion_KL_Trp_B_37]” the “apparent KD of K4 kissing-loop reporter” value was 640 nM. In the case of “UUUUAUUAGUAGUGAUGUUACUAAACUGAAGGAGCGAGAUUUAACUCAGGUAGGUCGCAGAAAAUCAAUUAAUUUAUAAAUUAAA [JR_SSArginiA_Sub011]”, the “apparent KD of K4 kissing-loop reporter” value is reported as 87.8 nM. For “UAAAUUAUCUGAAGGAGCGUGAAAUAAUAUUAAACAUAACAACCCAGUGAUGUUGGGUUAUCACAGGUAGGUCGCAGAUGUAGAU [Same State Arginie B GF 24]”, the “apparent KD of K4 kissing-loop reporter” value was 113 nM.
